Test results published in the nanobody polyreactivity screen of Harvey et al. (2022).

Assay: yeast display, Sf9 membrane polyspecificity reagent, FACS + sequencing; frameworks hold sequencing errors
Summary of the method: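 In a synthetic yeast display library (Saccharomyces cerevisiae BJ5465), nanobody expression was induced with galactose for 36–48 hours. FACS gates were set low and high (top ~1%) using anti-HA fluorescence for expression and streptavidin fluorescence for binding of the Sf9 membrane reagent. Each polyreactivity label is drawn from the gate of origin.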

Sequence | polyreactivity (PSR sort gate)
QVQLVESGGGLVQAGGSLRLSCAASGIIFTYAMGWYRQAPGKERELVAAIDWRGGRTYYADSVKGRFTISRDNAKNTVYLQMNSLKPEDTAVYYCAARLPGGTYYWGQGTQVTVSS | high polyreactivity
HVHLVESGGGLVQAGGSLRLSCASSGPTFGWNVMGWYRQAPGKERELVAAISGSGGSTYYADSVKGRFTISRDNAKNTVYSQMNSLKPEDTAVYYCAALYGPGREYDYWGQGTQVSVSS | low polyreactivity
QVQLVESGGGLVQAGGRLRLRCAASGSIFSPNAMGWYRQAPGKERELVATISFSGGRTYYADSVKGRFTISRDNAKNSVYLQMNSLKPEDTAVYYCAKAYYYTDMDYWGQGTQVTVSS | low polyreactivity
QVQLVESGGGLVQAGGSLRLSCAASGNNFLLYAMVWYRQAPGKEREFVAAITWIAGSTYYADSVKGRFTISRDNAKNTVYLQMNSLKPEDTAVYYCAADSYWYDMDYWGQGTQVTVSS | high polyreactivity
QVQLVDSGGGLVQAGGSLRLSCAASGRTFYSYAMGWYRQAPGKERELVSAISRNGGSTYYADSVKGRFTISRDNAKNSVYLQMNSLKPEDTAVYYCAAKRAGPYGISKGMDYWGQGTQVTVSS | high polyreactivity
QVQLVESGGGLVQAGGSLRLSCAASGRTFSYAMGWYRQAPGKERELVAAITSGGSTYYADSVKGRFTISRDNAKNTVYLQMNSLKPEDTAVYYCAKLLGNYARYDYWGHGTQVTVSS | high polyreactivity
QVQLVESVGGLVQAGGSHRLSCAASGLTFEWYTMGWYRQAPGKERELVAVITVSGSSTYYADSVKGRFTISRDNAKNTVYLQMNSLKPEDTAVYYCNADWSFYSYTLYDYWGQGTQVTVSS | low polyreactivity
QVQLVESGGGLVQAGGSLRLSCAASGRTFDVYAMGWYRPAPGKERELVATIRSDGSTTYADSVKGRFTISRDNAKNTDYLQLNSLKPEDTAVYYCAAERVGVFFRYDYWGQGTQVTVSS | low polyreactivity
QVQLVESGGGLVQAGGSLRLSCAASGFTFGYYAMGWYRQAPGKERELVAGITTDGSTNYADSVKGRFTISRDNAKNTVYLQMNSLKPEDTAVYYCAADDLHWLNSKRYRGRDYWGQGTQVTVSS | low polyreactivity
QVQLVESGGPLVQAGGSLLLSCAASGFTFTVYAKGWYRQAPGKERELVAAITYNGGSTYYADSVKGRFTISRDNAKNTVYLQMNSLKPEDTAVYYCAAEVFLRSLGYWYDFWGLGTQVTVSS | high polyreactivity
QVQLVESGGGLVQAGGSLRLSCAASGRTLGQYEMGWYRQAPGTERELVAAITSSDGITYYADSVKGRFTISRDNAKNTVYLQMNSLKPEDTAVYYCASDYPYYWYWTYLYDYCGQGTQVTVSS | low polyreactivity
QVQLVESGGGLVQAGGSLRLSCAASGSTFLSNAMGWYRQAPGKERELVAAITIGGSTNYADSVKGRFTISRDNAKNTVYLQMNSLKPEDTAFYFCAADWYYDYAELTRDYDYWGQGTQVTVSS | low polyreactivity
QVQLVESGGGLVQAGGSLRLSCAASGSTFQYYAMGWYRPAPGKERELVAAISSGGSTYYADSVMGRFTISRDNAKNTVYLQMNSLKPEDNAVYYCAAYDYDGVYGYCGQGTQVTVSS | high polyreactivity
QVQLVESGGGLVQAGGSLRLSCAASGRTFPYYTMGWYRQAPGKERELVAAITSGGSTHYADSVKGRFTISRDNAKNTVYLQMNSLKPEDTAVYYCAADLFYHSYGYEYWGQGTQVTVSS | low polyreactivity
QVQLVESGGGLVHAGGSLRLRCAASGRTFYFSNMGWYRQAPGKQRELVATIRWSAGSTYYADSVKGRFTISRDNAKNSVYLQMKSLKPEDTAVYYCNGDPYVYSSWQYGYWGQGTQVTVSS | high polyreactivity
QVQLVESGGGLVQAGGSLRLSCAASGRTFPGNAMGWYRQAPGKERELVAAINSGGSTYYADSVKGRFTISRDNAKNTVYLQMNSLKPEDTAVYYSAAYFGHYWRYYYWGQGTQVNVSS | high polyreactivity
QVQLVESGGGLVQAGGSLRLSCAASGRIFYPNAMGWYRQAPGKERELVAAISWSGGSTYYADSVKGRFTISRDNAKNTVYLQMNSLKPEDTAVYYCNAEYRYYQKTPGRYTNVEYDYWGQGTQVTVSS | low polyreactivity
QVQLVESGGGLVQAGGSLRLSCAASGSIFYFNAMGWYRQAAGKEWELVATISRRGGSTYYADSVKGRFTISRDNAKKTVYLQMNSLKPEDTAVYYCAADYYTLYPVYIKRYGYWGQGTQVTVSS | high polyreactivity
QVQLVESGGGLVQAGGSLRLSCAASGRIFVTNAMGWYRQAPGKERELVAAISTGGSTNYADSVKGRFTISRDNAKNTVYVQRNSLKPEDTAVYYCNRGSRYSHKYDYWGQGTQVTVSP | high polyreactivity
QVQLVESGGGLVQAGGSLRLSCAASGSTFAGNAMGWYRQAPGKERELVAAIDSSTGSTYYADSVKGRFTISRDNAKNTVYLQMNSLKPEDTPVYYCSREYYEGYEYWGLGTQVTVSS | low polyreactivity
QVQLVESGGRLGQAVGSLRLSCAASGSIFLQNAMGWYRQAPGKERELVAAITNGGSTNYADSVKGRCTISRDNAKNTVYLQINSLKPEDTAVYYCAAYPLYTGSYDRGGYWGLGTQVTVSS | low polyreactivity
QVQLVESGGGLVQARGSLRLSCAASGITFYFNAMGWYRQAPGKERELVAVITSGGSTNYADSVKGRFTISRDNAKNTVYLQMISLKPEDTAVYYCATDKSYSSWSAQYDYWRQGTQVTVSS | low polyreactivity
